The results in this text go back to patent publication US20180044385A1.

Residue numbers refer to the chain shown, from its start.

Assay [1] has as its target FabHS (a human 4D5 scaffold with residues PEELRTNK replacing light chain positions 122-129). Kind of assay: protein ELISA. (In general: ELISA stands for enzyme-linked immunosorbent assay.)
Assay [2] has as its target IgG2, IgG3 and IgG4. Kind of assay: method not stated (data not shown).
For assay [3], the target named is 4D5 Fab scaffold possessing a human IgG1 CH1 and a Kappa light chain. Put plainly: equilibrium SPR.
For assay [4] the target is unchanged. Kind of assay: fluorescence polarization with Alexa-Fluor labeled Protein-G, pH varied.
For assay [5], the target named is Fab with lambda light chain (Cλ). Put plainly: ELISA; reference is the Fab with kappa light chain.
Assay [6] concerns the target 4D5 Fab scaffold possessing a human IgG1 CH1 and a Kappa light chain. Put plainly: SPR.

A word on the IC50: it is the point on the concentration scale where inhibition reaches its midpoint. Higher therefore signals a need for much substance. Usually Kd stands for the free concentration of one partner at which half of the binding sites on the other are occupied at equilibrium, for simple one-to-one binding. A higher Kd goes with weaker binding.

B1: Protein-G-HS C7 (designed binder)
chain: MKGETTTEAVDAATAEKVFKQYANDNGVDGEWTYDDATKTFTVTEKPEVIDASELTPAVTTYKLVINGKTLKGETTTEAVDAATAEKVFKQYANDNGVDGEWTYDDATKTFTVTEKPEVIDASELTPAVTTYKLVINGRTLSGETTTKAVDAETAEKAFKQYAYGAVVDGVWTYDDATKTFTVTE
In turn, B1 displayed an IC50 in assay [1] of 100 nM.

B2: Protein-G-HS C6 (designed binder)
chain: B1 chain with A163S, Y164R, G165P, A166H
In turn, B2 had an IC50 in assay [1] of 8 nM.

B3: Protein-G-A1 (designed binder)
chain: MKGETTTEAVDAATAEKVFKQYANDNGVDGEWTYDDATKTFTVTEKPEVIDASELTPAVTTYKLVINGRTLSGYTTTTAVDAATAEKVFKQYAYVHEVDGEWTYDDATKTFTVTEKPEVIDASELTPAVTTYKLVINGRTLSGETTTKAVDAETAEKAFKQYANDNGVDGVWTYDDATKTFTVTE
Take B3: in assay [2], the fold decrease in affinity relative to human IgG1 was in the range of 20 to 50 fold. Further, in assay [3], the Kd was 25 nM. In assay [4], this molecule came in with a fold decrease in affinity from pH 7.5 to pH 4 of 1000 fold; a fold loss of affinity between pH 5.5 and pH 4.0 of 300 fold. In assay [5], the EC50 ratio, Cλ Fab over CK Fab is greater than 5000 fold. Further, the fold higher affinity than wild-type Protein-G in assay [6] turned out to be 100 fold.
